Source: US20130315910A1 (Xencor, published 2013)

T1: human FcγRIIb receptor protein (R&D Systems) (human, UniProt P31994 46-217)
T1 construct: Bought protein injected over captured antibody in Biacore; also called CD32b
T1 sequence (looked up): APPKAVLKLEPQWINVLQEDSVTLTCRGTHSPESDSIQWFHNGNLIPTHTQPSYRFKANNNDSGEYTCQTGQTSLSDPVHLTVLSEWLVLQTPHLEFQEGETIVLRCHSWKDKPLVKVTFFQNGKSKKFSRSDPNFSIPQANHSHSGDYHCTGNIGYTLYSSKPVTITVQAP

T2: human FcγRIIa (131R), His- and GST-tagged (human, UniProt P12318 34-217)
T2 construct: Expressed in HEK293T cells, purified by nickel chromatography; also called R131 FcγRIIa; not shown: 6xHis and GST tags of the pTT5 vector
T2 sequence (looked up): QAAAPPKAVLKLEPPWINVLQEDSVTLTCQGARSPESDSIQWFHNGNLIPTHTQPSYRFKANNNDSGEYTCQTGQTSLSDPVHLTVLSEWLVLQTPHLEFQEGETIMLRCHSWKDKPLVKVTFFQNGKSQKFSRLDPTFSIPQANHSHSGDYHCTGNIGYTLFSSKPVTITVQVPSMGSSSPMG

T3: human FcγRIIa (131H), His- and GST-tagged (human, UniProt P12318 34-217)
T3 construct: also called H131 FcγRIIa; HIIa; not shown: 6xHis and GST tags of the pTT5 vector
T3 sequence (looked up): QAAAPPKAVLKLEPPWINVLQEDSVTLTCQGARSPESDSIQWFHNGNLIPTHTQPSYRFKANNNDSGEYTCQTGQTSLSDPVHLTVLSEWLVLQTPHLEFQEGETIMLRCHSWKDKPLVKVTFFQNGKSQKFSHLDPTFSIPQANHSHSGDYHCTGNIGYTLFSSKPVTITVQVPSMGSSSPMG

T4: mFcγRIIb (Mus musculus, UniProt P08101)
T4 construct: extracellular region, C-terminal His- and GST-tag; also called mouse FcγRII
T4 sequence (receptor extracellular region, looked up): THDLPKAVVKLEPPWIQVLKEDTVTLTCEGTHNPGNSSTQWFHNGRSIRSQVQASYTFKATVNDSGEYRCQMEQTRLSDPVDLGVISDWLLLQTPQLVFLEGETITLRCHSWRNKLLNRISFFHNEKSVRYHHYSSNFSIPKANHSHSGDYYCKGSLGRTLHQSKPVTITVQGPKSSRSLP

T5: mFcγRIV
T5 construct: also called mouse FcγRIV; not shown: C-terminal His and GST tags (named only on our card)
T5 chain: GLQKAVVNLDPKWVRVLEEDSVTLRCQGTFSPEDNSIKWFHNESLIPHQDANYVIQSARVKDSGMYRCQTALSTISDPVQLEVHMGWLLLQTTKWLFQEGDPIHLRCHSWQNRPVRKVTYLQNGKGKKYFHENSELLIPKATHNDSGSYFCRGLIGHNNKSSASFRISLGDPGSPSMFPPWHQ

T6: cynoFcγRIIb (Macaca fascicularis, UniProt A0A140HDP4)
T6 construct: extracellular region, C-terminal His- and GST-tag; also called cynomolgus monkey FcγRIIb
T6 sequence (receptor extracellular region): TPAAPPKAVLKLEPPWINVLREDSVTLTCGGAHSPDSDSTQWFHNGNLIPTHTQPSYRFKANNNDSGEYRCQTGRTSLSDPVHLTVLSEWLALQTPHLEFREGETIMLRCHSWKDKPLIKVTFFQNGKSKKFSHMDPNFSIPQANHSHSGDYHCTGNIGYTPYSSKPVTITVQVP


Tests used:
[1] = molecular target: T1, human FcγRIIb receptor protein (R&D …); assay: SPR
[2] = molecular target: T7, human FcγRI receptor protein (R&D Systems) (human, UniProt P12314 16-288); assay: SPR
T7 construct: also called soluble FcγRI; solFcγRI

[3] = molecular target: T2, human FcγRIIa (131R), His- and …; assay: SPR
[4] = molecular target: T3, human FcγRIIa (131H), His- and …; assay: SPR
[5] = molecular target: T8, human FcγRIIIa (158V), His- and GST-tagged (human, UniProt P08637 17-208); assay: SPR
T8 construct: also called V158 FcγRIIIa; VIIIa; not shown: 6xHis and GST tags of the pTT5 vector

[6] = molecular target: T9, human FcγRIIIa (158F), His- and GST-tagged (human, UniProt P08637 17-208); assay: SPR
T9 construct: also called F158 FcγRIIIa; not shown: 6xHis and GST tags of the pTT5 vector

mFcγRIIb [7] = molecular target: T4, mFcγRIIb; assay: SPR, off-rate
mFcγRIV [8] = molecular target: T5, mFcγRIV; assay: SPR, off-rate
cynoFcγRIIb [9] = molecular target: T6, cynoFcγRIIb; assay: SPR, off-rate
cynoFcγRIIIa [10] = molecular target: T10, cynoFcγRIIIa (Macaca fascicularis, UniProt Q8SPW2); assay: SPR, off-rate
T10 construct: extracellular region, C-terminal His- and GST-tag; also called cynomolgus monkey FcγRIIIa

mFcγRIIb [11] = molecular target: T4, mFcγRIIb; assay: SPR
mFcγRIV [12] = molecular target: T5, mFcγRIV; assay: SPR
cynoFcγRIIb [13] = molecular target: T6, cynoFcγRIIb; assay: SPR
cynoFcγRIIIa [14] = molecular target: T10, cynoFcγRIIIa; assay: SPR
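Throughout, for Fold vs WT IgG1 (off-rate): fold improvement over WT IgG1 so higher means slower dissociation than WT.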

T7 sequence (P12314 16-288 limits assumed): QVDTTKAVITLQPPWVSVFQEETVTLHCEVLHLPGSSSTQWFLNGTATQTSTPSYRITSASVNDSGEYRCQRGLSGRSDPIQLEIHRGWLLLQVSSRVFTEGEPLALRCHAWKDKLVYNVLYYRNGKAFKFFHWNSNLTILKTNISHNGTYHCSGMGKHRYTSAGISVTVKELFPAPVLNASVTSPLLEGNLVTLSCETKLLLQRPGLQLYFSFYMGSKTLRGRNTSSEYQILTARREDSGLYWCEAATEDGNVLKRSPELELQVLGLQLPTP
T10 sequence (Q8SPW2 17-208): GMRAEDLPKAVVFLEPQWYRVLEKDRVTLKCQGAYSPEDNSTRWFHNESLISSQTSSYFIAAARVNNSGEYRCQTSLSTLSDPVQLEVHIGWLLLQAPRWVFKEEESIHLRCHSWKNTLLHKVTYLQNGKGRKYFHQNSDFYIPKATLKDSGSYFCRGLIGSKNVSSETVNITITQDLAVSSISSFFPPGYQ
T9 sequence (P08637 17-208): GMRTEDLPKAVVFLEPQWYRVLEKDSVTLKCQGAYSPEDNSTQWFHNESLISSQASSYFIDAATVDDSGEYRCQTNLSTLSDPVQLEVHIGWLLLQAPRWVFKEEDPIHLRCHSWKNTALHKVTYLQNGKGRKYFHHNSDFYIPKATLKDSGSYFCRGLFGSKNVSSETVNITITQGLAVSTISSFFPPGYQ
T8 sequence (P08637 17-208 F176V): as the sequence (P08637 17-208) above, with F160V counted along it

Binder	Fold vs WT IgG1 [1] [fold]	Kd [1] [nM]	Fold vs WT IgG1 [2] [fold]	Kd [2] [nM]	Fold vs WT IgG1 [3] [fold]	Kd [3] [nM]	Fold vs WT IgG1 [4] [fold]	Kd [4] [nM]	binding result [5]	binding result [6]	binding result (mFcγRIIb [7])	binding result (mFcγRIV [8])	binding result (cynoFcγRIIb [9])	binding result (cynoFcγRIIIa [10])	Kd [5] [nM]	binding result [4]	further results
G236D (antibody, human IgG1, kappa, HuAM4G7 anti-CD19 IgG1 (m1) with this Fc substitution, EU index; copies: 2 + 2) heavy: not shown light: DIVMTQSPATLSLSPGERATLSCRSSKSLQNVNGNTYLYWFQQKPGQSPQLLIYRMSNLNSGVPDRFSGSGSGTEFTLTISSLEPEDFAVYYCMQHLEYPITFGAGTKLEIKRTVAAPSVFIFPPSDEQLKSGTASVVCLLNNFYPREAKVQWKVDNALQSGNSQESVTEQDSKDSTYSLSSTLTLSKADYEKHKVYACEVTHQGLSSPVTKSFNRGEC	1.54	953	0.0211	15.6	0.758	1130	0.167	3870	no binding	no binding	no binding	no binding	no binding	no binding			
S239D (antibody, human IgG1, kappa, HuAM4G7 anti-CD19 IgG1 (m1) with this Fc substitution, EU index; copies: 2 + 2) heavy: not shown light: DIVMTQSPATLSLSPGERATLSCRSSKSLQNVNGNTYLYWFQQKPGQSPQLLIYRMSNLNSGVPDRFSGSGSGTEFTLTISSLEPEDFAVYYCMQHLEYPITFGAGTKLEIKRTVAAPSVFIFPPSDEQLKSGTASVVCLLNNFYPREAKVQWKVDNALQSGNSQESVTEQDSKDSTYSLSSTLTLSKADYEKHKVYACEVTHQGLSSPVTKSFNRGEC	3.6	408	3.53	0.0934	3.73	230	1.1	590							23.5		Fold vs WT IgG1 [5]: 8.14 fold; Fold vs WT IgG1 [6]: 6.32 fold; Kd [6]: 214 nM; Fold vs WT IgG1 (Kd) (mFcγRIIb [11]): 2.01 fold; Fold vs WT IgG1 (off-rate) (mFcγRIIb [11]): 2.91 fold; Fold vs WT IgG1 (Kd) (mFcγRIV [12]): 2.52 fold; Fold vs WT IgG1 (off-rate) (mFcγRIV [12]): 1.91 fold; Fold vs WT IgG1 (Kd) (cynoFcγRIIb [13]): 1.64 fold; Fold vs WT IgG1 (off-rate) (cynoFcγRIIb [13]): 1.99 fold; Fold vs WT IgG1 (Kd) (cynoFcγRIIIa [14]): 7.58 fold; Fold vs WT IgG1 (off-rate) (cynoFcγRIIIa [14]): 2.33 fold
anti-CD19 antibody HuAM4G7 IgG1 ^236R/L328R (antibody, also called Fc-KO; FcγR knockout) heavy: EVQLVESGGGLVKPGGSLKLSCAASGYTFTSYVMHWVRQAPGKGLEWIGYINPYNDGTKYNEKFQGRVTISSDKSISTAYMELSSLRSEDTAMYYCARGTYYYGTRVFDYWGQGTLVTVSSASTKGPSVFPLAPSSKSTSGGTAALGCLVKDYFPEPVTVSWNSGALTSGVHTFPAVLQSSGLYSLSSVVTVPSSSLGTQTYICNVNHKPSNTKVDKKVEPKSCDKTHTCPPCPAPELLGRGPSVFLFPPKPKDTLMISRTPEVTCVVVDVSHEDPEVKFNWYVDGVEVHNAKTKPREEQYNSTYRVVSVLTVLHQDWLNGKEYKCKVSNKARPAPIEKTISKAKGQPREPQVYTLPPSREEMTKNQVSLTCLVKGFYPSDIAVEWESNGQPENNYKTTPPVLDSDGSFFLYSKLTVDKSRWQQGNVFSCSVMHEALHNHYTQKSLSLSPGK light: DIVMTQSPATLSLSPGERATLSCRSSKSLQNVNGNTYLYWFQQKPGQSPQLLIYRMSNLNSGVPDRFSGSGSGTEFTLTISSLEPEDFAVYYCMQHLEYPITFGAGTKLEIKRTVAAPSVFIFPPSDEQLKSGTASVVCLLNNFYPREAKVQWKVDNALQSGNSQESVTEQDSKDSTYSLSSTLTLSKADYEKHKVYACEVTHQGLSSPVTKSFNRGEC									no binding	no binding						no binding	binding result [1]: no binding; binding result [2]: no binding; binding result [3]: no binding
anti-CD19 antibody HuAM4G7 IgG1 G236R/L328R (antibody, Control knock out variant; Positions in EU numbering; also called Fc-KO; FcγR knockout) heavy: not shown light: DIVMTQSPATLSLSPGERATLSCRSSKSLQNVNGNTYLYWFQQKPGQSPQLLIYRMSNLNSGVPDRFSGSGSGTEFTLTISSLEPEDFAVYYCMQHLEYPITFGAGTKLEIKRTVAAPSVFIFPPSDEQLKSGTASVVCLLNNFYPREAKVQWKVDNALQSGNSQESVTEQDSKDSTYSLSSTLTLSKADYEKHKVYACEVTHQGLSSPVTKSFNRGEC									no binding	no binding						no binding	binding result [1]: no binding; binding result [2]: no binding; binding result [3]: no binding
anti-CD19 antibody HuAM4G7 IgG1 S239D/S267E (antibody, Positions in EU numbering; copies: 2 + 2) heavy: not shown light: DIVMTQSPATLSLSPGERATLSCRSSKSLQNVNGNTYLYWFQQKPGQSPQLLIYRMSNLNSGVPDRFSGSGSGTEFTLTISSLEPEDFAVYYCMQHLEYPITFGAGTKLEIKRTVAAPSVFIFPPSDEQLKSGTASVVCLLNNFYPREAKVQWKVDNALQSGNSQESVTEQDSKDSTYSLSSTLTLSKADYEKHKVYACEVTHQGLSSPVTKSFNRGEC	111	13.3	23.2	0.0142	120	7.16	1.27	510							51.2		Fold vs WT IgG1 [5]: 3.74 fold; Kd [6]: 516 nM; Fold vs WT IgG1 (Kd) (mFcγRIIb [11]): 1.75 fold; Fold vs WT IgG1 (off-rate) (mFcγRIIb [11]): 7.87 fold; Fold vs WT IgG1 (Kd) (mFcγRIV [12]): 0.726 fold; Fold vs WT IgG1 (off-rate) (mFcγRIV [12]): 1.54 fold; Fold vs WT IgG1 (Kd) (cynoFcγRIIb [13]): 1.59 fold; Fold vs WT IgG1 (off-rate) (cynoFcγRIIb [13]): 2.53 fold; Fold vs WT IgG1 (Kd) (cynoFcγRIIIa [14]): 3.88 fold; Fold vs WT IgG1 (off-rate) (cynoFcγRIIIa [14]): 1.68 fold
anti-CD19 antibody HuAM4G7 IgG1 G236D/S267E (antibody, Positions in EU numbering; copies: 2 + 2) heavy: not shown light: DIVMTQSPATLSLSPGERATLSCRSSKSLQNVNGNTYLYWFQQKPGQSPQLLIYRMSNLNSGVPDRFSGSGSGTEFTLTISSLEPEDFAVYYCMQHLEYPITFGAGTKLEIKRTVAAPSVFIFPPSDEQLKSGTASVVCLLNNFYPREAKVQWKVDNALQSGNSQESVTEQDSKDSTYSLSSTLTLSKADYEKHKVYACEVTHQGLSSPVTKSFNRGEC		26.6		3.71				2730			no binding	no binding	no binding	no binding	579		
G237A (antibody, human IgG1, kappa, HuAM4G7 anti-CD19 IgG1 (m1) with this Fc substitution, EU index; copies: 2 + 2) heavy: not shown light: DIVMTQSPATLSLSPGERATLSCRSSKSLQNVNGNTYLYWFQQKPGQSPQLLIYRMSNLNSGVPDRFSGSGSGTEFTLTISSLEPEDFAVYYCMQHLEYPITFGAGTKLEIKRTVAAPSVFIFPPSDEQLKSGTASVVCLLNNFYPREAKVQWKVDNALQSGNSQESVTEQDSKDSTYSLSSTLTLSKADYEKHKVYACEVTHQGLSSPVTKSFNRGEC	0.191	7680	0.0108	30.5	0.704	1220			no binding		no binding	no binding	no binding	no binding		no binding	
